Assay results published in the NTF2 design screens of Basanta et al. (2020).

Assay: protease stability score; higher = more stable; yeast display proteolysis, trypsin and chymotrypsin;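 further: relative to predicted unfolded state with 0 unfolded-like and 1 meaning tenfold more protease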

Row | Sequence | protease stability score
1 | TEDMEVMRRILELFIELVTTGDWEILRELLDPNVRIEIGDKQLHGRELVSNSLLLLGVDHIRVKDMKIQGEKLHIETENEINGVKLNTHILLLKINGRWLIKDLSVK | 1.29
2 | TEDQEEAKRLLHHLAHNWFTGNEHILTRLADPNTRMNVNGRDYHGREIMHETVREILERLGIDHFEIKDMRFIVQGEKIHIHIHIRSTVNGQEEDFRLSISVHKIDGRWVIKEINLHFI | 0.511
3 | TEDQEQAEEHFREEIHHWRTGDEDQLRRLMDPNTRIEIGDKVLHGREHAELFLRRYKGLKIDRFEIRHRDHQGDYVILHTHFRGEVNGRDFENTVQLVVLKVDGRWFLKYIRVE | 1.64
4 | TEDQEQLEQHIRELTHNWHTGDFDSLKKLFDPNVKLEIGDKEYHGRELAEKYIRDELRHLRIEHVENREWRLINGVIILHTRLVGNIDGQRVERDTEIYVKKFDGQWIIEIFRVH | 1.34
5 | TEDREEVRRWWKDLLRSLHTGDEEVLRKQIDPNVKLVDEDERSVGMDRFVKFMHFINREIRIERIHIKRLRLIDGQLEADTRMHVNIDGRIEETDVHILAKKVDGKWLLTSVILD | 1.48
6 | TEDREIAKKFAEHMIHNYETGDFERILELLDPHTKIHVNGKDMHGREHWLHHLKKWGVDRIESEIRHVEIQGDKVKVDTELHYGDKTIERTVIFEKFDGRWVLREVRVD | 1.12
7 | TEDRESILKLITMEQRNLRTGDEERWHELADPDYRLEFENREIHGREHAIRFMIETTLKLGVDHVELIINDVKWQGDKLHIDGHLRLEIGDKIIEERVIIINLKVNGRWLLRRKHVG | 1.03
8 | TEDSKLITDVLRHFTEAFITGDEHTLKRMADPHVRTEWDGVHLHGWEKFLKFIVTEHRKLGIDHMRVEVDHIESYGDKIHVEGTLVVIINGQEISRHVELVMVKIDGVWLFKSRHFR | 0.706
9 | TEDVRHADEMIERVIESLTTGDEESYKRLLDPDVRVLIGDKRIHGMEAVLEWFRRIDHVQIHDVRVREVEIVNGRADVRMEFDLTHRINGVEHRFKFESEMLLVKIDGQWRLHSDKRI | 1.57
10 | TEDWELMKKAMEDLSRDLSTGDFERINRMLDPHTKLVVGDKEHHGMHAWEIFVKRIDHERSVEVRHFRIIGDKIDIDGTLHAEYGEKRITLKVHIIDSKVNGKWVIEVLSFK | 1.4
11 | TEEDEELKRWFDHFLESMITGDEHQNTELFDPNVLIHINGRQLHGRESAKIFIKEIRYEEIEVTHVRKYGNYVISSGVVRVRINGQESTIKTEVIVLKVNGQWLIRFVRFE | 2.26
12 | TEEDEEVEWVLKVLKETNDTGDEHTFRKLMDPRTKFHINGKDYIGMEAWREQVEKLGFKHIHDIKIEDMRVYNGRIQLHGRVDMVQGDKKIDMHVILIAVKVNGRWLLRFDIVE | 1.38
13 | TEEDEFWERYVQLLRELWITGDEETWKNLADPNTRLHINGVTAHGREEVEHVYKKILEDLGIDVRHIHRIDVQGDKMRIDSRNNIDGQIFRLHIENHFVNGRLQFIRMEVH | 1.25
14 | TEEDEHLYEYLESLFHHQRTGDEDKYERLLDPHARLDINGVDVIGMERVVHQWHEHWRRYKNMRIHFRHYEIKVFNGRAHLRIEGHMEYGDKKSEVELLFIAIKINGRWVVKQVHITVH | 1.82
15 | TEEDEHSRVAIEQTIRTLETGDEKEWERELDPHVRINIGEKHFHGRERAVELWLRLGVKHFRIKEVEHQGNKIIVHGSINVNGVKIEMYSIAEKIDGKWHLTHMHIP | 1.53
16 | TEEDELAHRFWELIRTSFLTGDEESLERLADPNVRLEIGDKELHGREQFSHIMREFVERFKNLRVRVEEERVVGDKAESIEDFHFNGQNLKVLTIVKKINGKWVIKSIVIKIE | 1.7
17 | TEEDELLDKLAEIFSKVLKTGDFDELLSLFDPHTRLEVRQGDKEFHYHGREEVVRFWRHVRNRIDHSQLELHDVKSVNGVANSDSEVILRVNGKEIRIHHILLFVVINGRSKMVVIEFR | 1.68
18 | TEEDELRELAIRLLEESLRTGNEQDLRELFDPNTRIVIGNKDFHGMEHWVRWVFEWRKEHGIKMRIEVKRVDVQGDKIRIDTVLHIDVGDKHHVTRTELHAKKVDGKWFSTELRIN | 2.23
19 | TEEDELYRLLREHLKHVIETGDEELTQKNLDPHVKVELQIGDKKFTLHGRDQFTQWWKELHEKVKNIRFEDRHVQFFDGVAVVHVEINVNGRHIELIVIAEKVNGQWRIKHVEIRFL | 1.53
20 | TEEDEMVHRQTEILEESIVTGDWKTLRNFVDPNMRLEIGDKTVHGWHAMSHILRRIDHINSVELHKVEVYGEKVHVDTIVDGIVDGRRTHLRTHIIALKFNGRWILTSNKIE | 1.03
21 | TEEDEMWHKFMEHYVHNFLTGDPNKAKKLADPDTRFEIDGKDVVGMERIIDEFLKVPGLRSEIKRVTFIGDKIHIDGRMIINGVETKVDIDIHVVNGVIKSIHIRVR | 0.74
22 | TEEDEMWKELSDILLEIHETGDWDRLIRLVDPDVKVNIDGKDLHGWQEVAHTIRVLLEQFKGVKIIIRHVEIQGDKVHIHMEIRQGDKHYEVHLHYIVVNGKIKQMHMHRR | 1
23 | TEEDERAKHWAERWIRLLETGDFEILTELLDPNVRVEIDINGKKIELHGMETISEDLRRRLEELGFKHFHIRDMKSQGDKSRVRGEVEVNGKPVDVHIVLNIVDGKLKTFRFENK | 1.35
24 | TEEDEVTEELARNWVKYFLTGDEEQLHRLMDPNARFHTIVGDKHVHRHGRESIVHWIDHVLRHIRIEEVHIRRVHIWNGRVDINNEEIGRVGDKHYRTEVRIHLRIVDGVIRSVDIDIE | 0.693
25 | TEEDHELRLAHEELHRDLDTGDWESFMRYMDPRARVHYNGREFIGREFAVKFYLDVLNKYKGLTFRIHDIRIFDGVLFVRVKFHFDGQWLHSSEVALKVNGQWHNHHVSFI | 0.611

Row | Sequence | protease stability score
26 | TEEDHFLKRELEKYIHSILTGDEDSTQHMIDPHARVFWNGVELHGRDAITKIMREWRIRHVRIERFEVQGDKIESHSISHMEINGKKHDHIFRITSEKYDGRWVIRELSIE | 1.51
27 | TEEDHHAKRMTKMWEEALITGNEHLVKEMFDPHARYRQGEWDLVGREEISKFVLTNLEEWRIDHHHTHSLHLQGEKSHVRSRVLGIFDGKRFETHLQVDVEVINGKIHDLTIRIT | 0.678
28 | TEEDHKAFTMVELFLNALTTGDERTLEKLVDPNVRVNIDGRDVHGMSILIRWREHLRFEFREVNNKRSELQGEKLHVDSEVDRHIRIGDKEDREHIRIHFHLLKINGRWFIEEVRML | 1.36
29 | TEEDKLIEKAWRLFLHILHTGDWEEFHRLADPHMREDVNGVNLIGREDVLRHFIRLIEELGVKHSHVKDFRIHIFNGVIHTIMDVRTEYGDKSVDVRIHLEIEKIDGRWFLRTARIRLT | 1.51
30 | TEEDKMEHDYAKLFMFLERTGDETLFEKLVDPDVKHIFDGVHLHGREEVASFLHHLLREWRIHHIDLKRVDVVNGKIEIDGRRNGDFDGKRYETHFTIHVFLYDGRIKWFEIRIR | 1.46
31 | TEEDRETEKFLRILQEVHRTGDWRRFDEFLDPNVRIHIGDKEYHGREEFTRFFKEMGIDHHEVKHYRLVDGQLDLDVTERFNGVTVKTKLITHKFDGRWLITEIRVK | 1.19
32 | TEEDRFAHEFVRKWIENFLTGNEEKLHELADPNMKIDVGDKHLHGMEEWTRFLRDLGWRTEIRLRDIEVQGNKAFIRGEVHISINGRTDKTETRIILHVVNGRLKEVYVHHQ | 1.53
33 | TEEDRLVDKITKELLTALTTGDEEIFLELLDPNARVEYNGKEMHGREFYRKIFEEEEKKIKNLRVEIHDYDAQGDKIHVDQRRHFNGRTYDYRLHYLVVNGKVKSVFVRIL | 0.831
34 | TEEEDEASRLMEEFLKHHETGDWEELKKMADPDARYHETVNGKRIERHGRDDLITWLRKFLEKFKNMRLHIDEMRLIGNKNILHGTLRIGDKDIESRIILIIIDGRIKEIEIIIK | 1
35 | TEEEDLIRRQIHELRETLQTGDEHLLNWLLDPHARMEIDGQEVWGREEIAKFLHRFKNITVLFNDMIVQGDKVDIDGQIEFNGRRRRARLISDKVDGQWIDHDIIII | 1.3
36 | TEEEDRLREIAELIHKFLTTGDWEKIFRMLDPHVRVEIHVNGRDIIIHGWKNVHRLLEYELEELRFHQSDVHELRVQGDKAHSITEWDGVIDGRRQNLHVNVHFVTVDGRIRSIKFEFR | 1.57
37 | TEEEEAAKRVFRLLLENAKTGDEDHLRELIDPNVRIHVDGRTLIGMEQFKRFWSEMRVHHWDQKSVDFVNGRVHSDTIINSHVDGQTIHIDVRIIITKIDGQWVVESFSVS | 1.17
38 | TEEEEAKHLAQRIIEEDLRTGDWSRELRQIDPDVKTRVGDKTFHGMSALHYLLKQIDHPKSFTTHHIEVQGDKIKIDGELEGNINGVRTKIHTIFIVRKVNGRWLVETIIFE | 1.53
39 | TEEEEDARRATEELVRIINTGDEDRWERLMDPDVRVEVGDKEIHGRETLSEIFKFKHKHLRIKMDIRDMRLIDGKVWVDIVIDVEFDGRRHIHKTTIVLIKVNGRWRLDEVRLH | 1.77
40 | TEEEEDLKEVLRVELETWHTGNWDEMRRLLDPHARLIFDGQTFHGRELAVKFFQELLTRFDVLHIIPQSVSVYNGRVEIHEEMHEVVDGQTIRRTYHVRSSKINGRWSVEVLVIQ | 0.443
41 | TEEEEEARRALEEWIHNLMTGDEKRELELADPHVRILIDINGREIHMHGWEQFERWVHEEMRRLGLDRFEVRLEHIEIQGDKSVLDGRINYNGVDERNNIILVVVDGKLRQIRIHVI | 1.95
42 | TEEEEEFHEILEHFLTQLHTGDWEEIIKNLDPNVLFHFNGVLFHGREEVSRFLVEWFDKIKGMRIHIHELRIVGDKATIDTRLDVGEKTHRVIIHIRKINGRWLITEIRIE | 2.02
43 | TEEEEEFHRMFELEVRAWRTGDEETIRRLFDPHARIDFNGRDVIGRDEFIKRFQELGVEVHDLKIHNFRIVGDKVHWDIRLDGTFNGKRTKLEIHLYAEKYDGQWFNKTEYYI | 1.36
44 | TEEEEEFKRTSHEIFYALHTGNWEILEKMFDPHVRTHINGKDVHGREEATRVMELWIEELGVKHIHIKSEHHDIQGEFVRIHFHIISRVGDKFIEIEIEMEIRKINGRWRFTSIRLDRR | 1.42
45 | TEEEEELHKILERMIKHLVTGDEEAILKLADPDVRVHRIIDGRELDIVGRENLRHWLHELLRQLGVDHIDVKSVTLQGDKIHMTGTMKWNGKTEETRIIFEVVNGRLKRMEFHEI | 0.982
46 | TEEEEELRRIEHLTIELIETGDEDTLKRLADPNARLNIEFNGVHIHSHGREEMARLLHEWYRTMGIKHEELKRSEIQGDKVILHTELRIGDKTVSTIIITLVINGRIKWIRIIIK | 1.36
47 | TEEEEEMRELTELWLNILHTGDEDRFRELADPRVRLHINGRHNHGREIFMEFFDRSLKILGADHRTIHRIRFIGDKIDIKGREYINGQETRATLHVIIVNGRIKFEEWRFD | 0.989
48 | TEEEEEMRKMSELYIRAILTGDEDEYTKLADPDDRVNFNGRKLVGRKEVKEWLRKLRDKFKNITLHHFEIKELRVYNGRIRMIAESEVNIGDKVWRFHLHFIFEKFDGVWVLTEESTE | 1.64
49 | TEEEEENMDFLHKWLERTRTGDEHEIKKLADPDVRLRVGNKEIHGRDLFARWAKEIRITHLDEKRFHIYNGKVDFDGINHVTVNGVDETRKVIFHLVKVDGVWRFKEVDIR | 0.98
50 | TEEEEESKKAVEDLLHTIKTGNEEHMDRLLDPNVRLHVGDKDFVGREAFRHFWHEEWERFKNIKVELEDVKIFNGRVQIVLRIDIGDKHHRLHVYADKINGRWFIKRVEIE | 2
